Paper PMC1698263

Biological target: FMRP (fragile X mental retardation protein) (human, UniProt Q06787 1-632)
Experiment: EMSA; FMRP 0.35-1.4 ug; 0.50 pmol RNA; FMRP EMSA: 30 min on ice, 6% nondenaturing PAGE; buffer, salt and pH not given (cited ref 18). Strand annealing assays (FMRP, I304N, dKHT, FXR1P) read RNA:RNA a

UAGGUAGUUUCAUGUUGUUGG (ssRNA) [hsa-miR-196a-1 mature miRNA]
binding result: binds
